This data set can be described thus: self-splicing fitness, log relative to wild type (ln ratio); higher = more splicing; Tetrahymena group I intron in knt gene, E. coli kanamycin selection, DiMSum; sequences stand for … in CUCUCU…GGAGGGAAAAGUUAUCAGGCAUGCACCUGGUAGCUAGUCUUUAAACCAAUAGAUUGCAUCGGUUUAAAAGGCAAGACCGUCAAAUUGCGGGAAAGGGGUCAACAGCCGUUCAGUACCAAGUCUCAGGGGAAACUUUGAGAUGGCCUUGCAAAGGGUAUGGUAAUAAGCUGACGGACAUGGUCCUAACCACGCAGCCAAGUCCUAAGUCAACAGAUCUUCUGUUGAUAUGGAUGCAGUUCACAGACUAAAUGUCGGUCGGGGAAGAUGUAUUCUUCUCAUAAGAUAUAGUCGGACCUCUCCUUAAUGGGAGCUAGCGGAUGAAGUGAUGCAACACUGGAGCCGCUGGGAACUAAUUUGUAUGCGAAAGUAUAUUGAUUAGUUUUGGAGUACUCGUGGUCG
The essentials:
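Six replicate transformations of E. coli BL21(DE3) with a pET-22b(+) library were grown overnight at 37°C or 30°C. The library randomised all eight P1ex-region intron nucleotides, the intron lying in the knt kanamycin-resistance gene, and plates were LB agar with or without 25 μg/mL kanamycin plus 100 μg/mL carbenicillin, 50 μM IPTG and 0.2% rhamnose. Pooled colonies were amplicon-sequenced on an Illumina HiSeq 2500, and fitness is the DiMSum error-weighted combination of wild-type-normalised replicate fold changes, kanamycin versus none.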

± gives the uncertainty stated by the source.

As for GACCAGCAAUAUUACGGGGG, the “self-splicing fitness (ln)” value by setting is: (30 °C) -1.92 ± 0.08; (37 °C) -1.17 ± 0.089.

Turning to UCGAAGCAAUAUUACGAAAG, the “self-splicing fitness (ln)” value is -3.24 ± 0.23 (30 °C) and -2.47 ± 0.44 (37 °C). For UAAUAGCAAUAUUACGUUGA, the “self-splicing fitness (ln)” value is -2.67 ± 0.2 (30 °C) and -2.54 ± 0.18 (37 °C). Regarding AGUGAGCAAUAUUACGACCG, the “self-splicing fitness (ln)” value (37 °C) is -0.72 ± 0.27. Regarding GACAAGCAAUAUUACGAUAA, the “self-splicing fitness (ln)” value (30 °C) is -1.68 ± 0.11 and the “self-splicing fitness (ln)” value (37 °C) is -0.345 ± 0.1.

For UAUUAGCAAUAUUACGGGCU, the “self-splicing fitness (ln)” value is -3.47 ± 0.27 (30 °C) and -2.3 ± 0.23 (37 °C). The matching figures for ACCAAGCAAUAUUACGGUCA: -1.36 ± 0.082 and -0.9 ± 0.086.

As for AGAGAGCAAUAUUACGUUUC, the “self-splicing fitness (ln)” value reads like this: (30 °C) -2.27 ± 0.21; (37 °C) -1.41 ± 0.23. The matching figures for UUCUAGCAAUAUUACGGCGG: -2.93 ± 0.16 and -1.28 ± 0.13. For GAAAAGCAAUAUUACGAGCC, the “self-splicing fitness (ln)” value by setting is: (30 °C) -1.38 ± 0.19; (37 °C) -0.409 ± 0.18. As to AAGCAGCAAUAUUACGUAUU, the “self-splicing fitness (ln)” value reads like this: (30 °C) -2.12 ± 0.058; (37 °C) -1.43 ± 0.082. For the sequence GGAAAGCAAUAUUACGCUAG, the “self-splicing fitness (ln)” value is -2.03 ± 0.22 (30 °C) and -0.857 ± 0.29 (37 °C). Regarding CGCCAGCAAUAUUACGUGUU, the “self-splicing fitness (ln)” value reads like this: (30 °C) -3.08 ± 0.14; (37 °C) -3.21 ± 0.18. On to GAGCAGCAAUAUUACGAGGG, for which the “self-splicing fitness (ln)” value (37 °C) was -2.81 ± 0.38. Take CUAAAGCAAUAUUACGCAAC: the “self-splicing fitness (ln)” value reads like this: (30 °C) -3.32 ± 0.29; (37 °C) -3.03 ± 0.38. As for GUAUAGCAAUAUUACGCUUU, the “self-splicing fitness (ln)” value is -3.51 ± 0.24 (30 °C) and -2.28 ± 0.17 (37 °C). Consider GCAAAGCAAUAUUACGAGCG, for which the “self-splicing fitness (ln)” value (30 °C) was -1.06 ± 0.077 and the “self-splicing fitness (ln)” value (37 °C) was -0.631 ± 0.093. For GUUCAGCAAUAUUACGCUCG, the “self-splicing fitness (ln)” value was found to be 0.167 ± 0.12 (30 °C) and 0.0872 ± 0.15 (37 °C).

GUACAGCAAUAUUACGUGAC: the “self-splicing fitness (ln)” value is, setting by setting: (30 °C) -2.8 ± 0.18; (37 °C) -0.577 ± 0.16.

Turning to GCUGAGCAAUAUUACGUCAU, the “self-splicing fitness (ln)” value by setting is: (30 °C) -3.26 ± 0.43; (37 °C) -0.856 ± 0.3. GGACAGCAAUAUUACGCUAU: the “self-splicing fitness (ln)” value is, setting by setting: (30 °C) -1.42 ± 0.098; (37 °C) -0.49 ± 0.11. Turning to CUUCAGCAAUAUUACGACAC, the “self-splicing fitness (ln)” value (37 °C) is -1.11 ± 0.24. GUCCAGCAAUAUUACGCGCA: the “self-splicing fitness (ln)” value was -0.0872 ± 0.1 (30 °C) and 0.23 ± 0.11 (37 °C). UUUCAGCAAUAUUACGUCCG: the “self-splicing fitness (ln)” value reads like this: (30 °C) -1.59 ± 0.14; (37 °C) -1 ± 0.21.

As to CGGCAGCAAUAUUACGUUCA, the “self-splicing fitness (ln)” value is -0.358 ± 0.068 (30 °C) and 0.0795 ± 0.082 (37 °C).

Consider UCAAAGCAAUAUUACGAUAU, for which the “self-splicing fitness (ln)” value runs as follows: (30 °C) -3.62 ± 0.23; (37 °C) -2.67 ± 0.18. As for GGGGAGCAAUAUUACGGGGC, the “self-splicing fitness (ln)” value reads like this: (30 °C) -2.92 ± 0.37; (37 °C) -2.2 ± 0.27. As for UCACAGCAAUAUUACGGUUU, the “self-splicing fitness (ln)” value runs as follows: (30 °C) -2.56 ± 0.068; (37 °C) -1.15 ± 0.067. Taken in the same sequence, the figures for AGGUAGCAAUAUUACGAGGG were -3.972 ± 0.031 and -3.2 ± 0.042.

ACUAAGCAAUAUUACGCGGG: the “self-splicing fitness (ln)” value (30 °C) is -2.3 ± 0.18 and the “self-splicing fitness (ln)” value (37 °C) is -1.36 ± 0.15. Regarding GACCAGCAAUAUUACGGUCA, the “self-splicing fitness (ln)” value is, setting by setting: (30 °C) -1.44 ± 0.099; (37 °C) -0.935 ± 0.1. Turning to AUGCAGCAAUAUUACGUCUC, the “self-splicing fitness (ln)” value is -1.93 ± 0.071 (30 °C) and -1.05 ± 0.092 (37 °C). The matching figures for UAGUAGCAAUAUUACGCUUU: -2.3 ± 0.25 and -2.18 ± 0.18. Consider AGUUAGCAAUAUUACGACUU, for which the “self-splicing fitness (ln)” value by setting is: (30 °C) -1.32 ± 0.078; (37 °C) -0.587 ± 0.12. As to UACCAGCAAUAUUACGUCUU, the “self-splicing fitness (ln)” value runs as follows: (30 °C) -1.99 ± 0.08; (37 °C) -0.209 ± 0.086.

For the sequence UCUGAGCAAUAUUACGCAUU, the “self-splicing fitness (ln)” value is -3.77 ± 0.37 (30 °C) and -2.15 ± 0.31 (37 °C).

Take UUACAGCAAUAUUACGGUCC: the “self-splicing fitness (ln)” value is, setting by setting: (30 °C) -1.95 ± 0.16; (37 °C) -1.03 ± 0.16. Turning to CACGAGCAAUAUUACGCUCU, the “self-splicing fitness (ln)” value was -2.57 ± 0.18 (30 °C) and -2.93 ± 0.28 (37 °C).

The values are drawn from the supplement of paper PMC7877785.
